Reference: PMC5849602
Residue numbers refer to the chain shown, from its start. Names may count otherwise. One block for each binder: values may come before it. The star is where a group is joined. AFC = O=c1cc(C(F)(F)F)c2ccc(N*)cc2o1

Legend:
[1] = molecular target: T1, recombinant Casp6-R65W (from full-length Casp6-His) (human) (UniProt P55212)
T1 sequence: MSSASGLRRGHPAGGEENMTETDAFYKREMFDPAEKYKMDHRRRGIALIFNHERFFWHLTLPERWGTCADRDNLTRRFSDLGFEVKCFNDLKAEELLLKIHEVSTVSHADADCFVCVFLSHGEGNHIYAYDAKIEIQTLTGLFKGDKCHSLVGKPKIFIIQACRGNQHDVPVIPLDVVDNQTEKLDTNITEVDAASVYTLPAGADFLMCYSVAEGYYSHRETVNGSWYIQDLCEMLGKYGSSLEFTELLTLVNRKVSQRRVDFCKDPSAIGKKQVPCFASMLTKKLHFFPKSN

[2] = molecular target: T2, recombinant Casp6-WT (from full-length human Casp6-WT-6xHis-tag-C-terminus) (human) (UniProt P55212)
T2 sequence: T1 sequence with W65R

[3] = molecular target: T3, Casp6-WT lacking its pro-domain (∆Casp6-WT) (human) (UniProt P55212)
T3 sequence: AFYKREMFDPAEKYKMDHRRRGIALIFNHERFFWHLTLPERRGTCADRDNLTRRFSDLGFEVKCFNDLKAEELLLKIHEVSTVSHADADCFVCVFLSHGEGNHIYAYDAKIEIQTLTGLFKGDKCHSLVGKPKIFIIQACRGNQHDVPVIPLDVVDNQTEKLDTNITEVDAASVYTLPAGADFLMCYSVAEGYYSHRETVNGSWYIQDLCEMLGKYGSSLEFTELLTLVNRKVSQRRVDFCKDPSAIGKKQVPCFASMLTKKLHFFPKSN

[4] = substrate: ΔN D179 CT version of Casp6-WT (human) (UniProt P55212); test: thermal shift assay (SYPRO Orange); 10 μM Casp6 with or without 50 μM Ac-VEID-CHO, 20 mM Tris pH 8.5, 5 mM DTT, 5x SYPRO Orange, 25 to 95 °C; ΔTm = Tm with minus Tm without Ac-VEID-CHO
[5] = molecular target: co-expressed Casp6-R65W large and small subunits (human); test: as above

KM of Ac-VEID-AFC cleavage (Michaelis-Menten fit; 20 nM Casp6, 1-300 µM Ac-VEID-AFC) [1]: 102 µM
KM of Ac-VEID-AFC cleavage (Michaelis-Menten fit; 20 nM Casp6, 1-300 µM Ac-VEID-AFC) [2]: 39.1 µM
B1: Ac-Val-Glu-Ile-Asp-7-Amino-4-trifluoromethylcoumarin (peptide)
peptide: Ac-VEID-{AFC}
SMILES: CC[C@H](C)[C@H](NC(=O)[C@H](CCC(=O)O)NC(=O)[C@@H](NC(C)=O)C(C)C)C(=O)N[C@@H](CC(=O)O)C(=O)Nc1ccc2c(C(F)(F)F)cc(=O)oc2c1

reduction of the VEIDase activity (40 µM Ac-VEID-AFC) of Casp3-processed ∆Casp6-WT (0.02 mg/ml) on addition of proCasp6-G66R (0.02-0.06 mg/ml, ratios 1:1 to 3:1), not dose-dependent [3]: 30%
B2: recombinant proCasp6-G66R (from full-length Casp6-His) (enzyme)
chain: T1 sequence with W65R, G66R

increase of melting temperature with Ac-VEID-CHO (ΔTm) [4]: 7 °C
increase of melting temperature with Ac-VEID-CHO (ΔTm) [5]: 4.6 °C
Binder: Ac-VEID-aldehyde [Ac-VEID-CHO]
